Experimental data: patent US20140093892A1 (KOREA RESEARCH INSTITUTE OF BIOSCIENCE AND BIOTECHNOLOGY, published 2014)

Target: T1, CK8 recombinant protein (human cytokeratin 8, tag sequence included) (human, UniProt P05787 1-483)
T1 construct: Expressed in E. coli BL21(DE3) as inclusion bodies, dissolved in 8 M urea/PBS; also called KRT8 Keratin, type II cytoskeletal 8
T1 sequence (looked up): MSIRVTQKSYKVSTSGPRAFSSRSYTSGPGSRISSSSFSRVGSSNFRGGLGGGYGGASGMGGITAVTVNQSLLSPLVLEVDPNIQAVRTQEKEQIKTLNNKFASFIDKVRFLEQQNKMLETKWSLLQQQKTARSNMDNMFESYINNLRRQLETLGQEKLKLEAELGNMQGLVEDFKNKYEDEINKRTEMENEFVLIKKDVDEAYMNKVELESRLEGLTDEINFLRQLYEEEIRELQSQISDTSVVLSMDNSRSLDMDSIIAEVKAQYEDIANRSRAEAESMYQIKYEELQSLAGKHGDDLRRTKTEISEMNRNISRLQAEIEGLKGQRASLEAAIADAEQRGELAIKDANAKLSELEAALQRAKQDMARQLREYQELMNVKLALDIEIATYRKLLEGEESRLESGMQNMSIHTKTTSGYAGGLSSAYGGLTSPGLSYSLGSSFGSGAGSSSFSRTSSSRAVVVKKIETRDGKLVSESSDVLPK
Assay: overlay of recombinant protein solution (50 µg/ml) on blotted partner protein, read out by TAB-K94 reactivity

B1: CK18 recombinant protein (human cytokeratin 18, tag sequence included) (other, UniProt P05783 1-430, looked up, not shown: small tags and cut ends)
chain: MSFTTRSTFSTNYRSLGSVQAPSYGARPVSSAASVYAGAGGSGSRISVSRSTSFRGGMGSGGLATGIAGGLAGMGGIQNEKETMQSLNDRLASYLDRVRSLETENRRLESKIREHLEKKGPQVRDWSHYFKIIEDLRAQIFANTVDNARIVLQIDNARLAADDFRVKYETELAMRQSVENDIHGLRKVIDDTNITRLQLETEIEALKEELLFMKKNHEEEVKGLQAQIASSGLTVEVDAPKSQDLAKIMADIRAQYDELARKNREELDKYWSQQIEESTTVVTTQSAEVGAAETTLTELRRTVQSLEIDLDSMRNLKASLENSLREVEARYALQMEQLNGILLHLESELAQTRAEGQRQAQEYEALLNIKVKLEAEIATYRRLLEDGEDFNLGDALDSSNSMQTIQKTTTRRIVDGKVVSETNDTKVLRH
notes: Expressed in E. coli BL21(DE3) as inclusion bodies, dissolved in 8 M urea/PBS; also called KRT18 Keratin, type I cytoskeletal 18
B1: binds.
